What is called Kd is the free concentration of one partner at which half of the binding sites on the other are occupied at equilibrium, for simple one-to-one binding.

The results in this text go back to article PMC6377630, “NapM enhances the survival of Mycobacterium tuberculosis under stress and in macrophages” (Communications Biology, 2019).

In test [1] the target is DnaA (M. tuberculosis H37Ra) (UniProt P9WNW3). The experiment in a line: SPR; DnaA immobilised on CM5 chip (5.7 μM), NapM proteins passed over; Biacore 3000; 10 mM HEPES, 150 mM NaCl, 3 mM EDTA, 0.01% surfactant P20, pH 7.4; 25 °C. A general note: SPR reads the build-up and loss of mass on a sensor chip optically.
For a further test, the target named is T1, DnaA (M. tuberculosis H37Ra, UniProt P9WNW3 1-507).
T1 construct: also called DnaA protein
T1 sequence: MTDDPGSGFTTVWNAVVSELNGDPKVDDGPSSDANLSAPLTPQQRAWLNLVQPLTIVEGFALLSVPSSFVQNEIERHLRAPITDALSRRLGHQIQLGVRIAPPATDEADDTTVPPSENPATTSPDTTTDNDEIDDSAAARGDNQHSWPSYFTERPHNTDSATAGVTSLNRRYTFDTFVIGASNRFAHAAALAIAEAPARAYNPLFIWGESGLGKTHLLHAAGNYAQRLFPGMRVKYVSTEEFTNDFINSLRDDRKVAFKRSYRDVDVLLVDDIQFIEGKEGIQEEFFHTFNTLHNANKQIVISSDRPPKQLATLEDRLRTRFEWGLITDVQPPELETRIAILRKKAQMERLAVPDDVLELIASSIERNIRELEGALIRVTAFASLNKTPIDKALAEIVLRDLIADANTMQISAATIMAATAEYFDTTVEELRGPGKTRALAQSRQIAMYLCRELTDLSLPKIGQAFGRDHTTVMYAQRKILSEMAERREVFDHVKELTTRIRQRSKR
The description is as above. The note with it: both partners purified.

“NapM C-terminal domain (CTD) (domain or fragment)”: the Kd in test [1] was found to be 500 nM.

B1: NapM (Rv0047c), nucleoid-associated protein (natural protein)
chain: MLELAILGLLIESPMHGYELRKRLTGLLGAFRAFSYGSLYPALRRMQADGLIAENAAPAGTPVRRARRVYQLTDKGRRRFGELVADTGPHNYTDDGFGVHLAFFNRTPAEARMRILEGRRRQVEERREGLREAVARASSSFDRYTRQLHQLGLESSEREVKWLNELIAAERAAPNPAEQT
As to B1, in the test with DnaA, binding was characterised by a dissociation constant (Kd) of 380 nM. This counts as sub-micromolar.
